The series deals with the molecule itself. In words: cryo-EM structure.

Changes are numbered by the printed parent chain. Names may count otherwise.

B1: Escherichia coli multidrug transporter MdtF, wild type (MdtF-6xHis) in SMA lipid particles (natural protein)
chain: MANYFIDRPVFAWVLAIIMMLAGGLAIMNLPVAQYPQIAPPTITVSATYPGADAQTVEDSVTQVIEQNMNGLDGLMYMSSTSDAAGNASITLTFETGTSPDIAQVQVQNKLQLAMPSLPEAVQQQGISVDKSSSNILMVAAFISDNGSLNQYDIADYVASNIKDPLSRTAGVGSVQLFGSEYAMRIWLDPQKLNKYNLVPSDVISQIKVQNNQISGGQLGGMPQAADQQLNASIIVQTRLQTPEEFGKILLKVQQDGSQVLLRDVARVELGAEDYSTVARYNGKPAAGIAIKLAAGANALDTSRAVKEELNRLSAYFPASLKTVYPYDTTPFIEISIQEVFKTLVEAIILVFLVMYLFLQNFRATIIPTIAVPVVILGTFAILSAVGFTINTLTMFGMVLAIGLLVDDAIVVVENVERVIAEDKLPPKEATHKSMGQIQRALVGIAVVLSAVFMPMAFMSGATGEIYRQFSITLISSMLLSVFVAMSLTPALCATILKAAPEGGHKPNALFARFNTLFEKSTQHYTDSTRSLLRCTGRYMVVYLLICAGMAVLFLRTPTSFLPEEDQGVFMTTAQLPSGATMVNTTKVLQQVTDYYLTKEKDNVQSVFTVGGFGFSGQGQNNGLAFISLKPWSERVGEENSVTAIIQRAMIALSSINKAVVFPFNLPAVAELGTASGFDMELLDNGNLGHEKLTQARNELLSLAAQSPNQVTGVRPNGLEDTPMFKVNVNAAKAEAMGVALSDINQTISTAFGSSYVNDFLNQGRVKKVYVQAGTPFRMLPDNINQWYVRNASGTMAPLSAYSSTEWTYGSPRLERYNGIPSMEILGEAAAGKSTGDAMKFMADLVAKLPAGVGYSWTGLSYQEALSSNQAPALYAISLVVVFLALAALYESWSIPFSVMLVVPLGVVGALLATDLRGLSNDVYFQVGLLTTIGLSAKNAILIVEFAVEMMQKEGKTPIEAIIEAARMRLRPILMTSLAFILGVLPLVISHGAGSGAQNAVGTGVMGGMFAATVLAIYFVPVFFVVVEHLFARFKKA
notes: also called MdtF^WT; apo-MdtF^WT; source: E. coli C43(DE3) ΔacrAB, extracted in SMALPs, purified (Ni-NTA, SEC)
Usually stoichiometry N stands for a count of units in the complex or per binding partner. Consider B1, for which the “stoichiometry N” value came out at 3.

B2: Escherichia coli multidrug transporter MdtF, single-point mutant V610F (MdtF-6xHis) in SMA lipid particles (natural protein)
chain: B1 chain with V610F
notes: also called MdtF^V610F; apo-MdtF^V610F; source: E. coli C43(DE3) ΔacrAB, extracted in SMALPs, purified (Ni-NTA, SEC)
Take B2: the binding result was “binds”.

The record behind these values is publication doi:10.1101/2025.04.04.646765, “Molecular basis for multidrug efflux by an anaerobic RND transporter” (bioRxiv, 2025).
